Source: patent US10865391B2, “Glutamate dehydrogenase mutants and their application in preparation of L-phosphinothricin” (ZHEJIANG UNIVERSITY, priority 2018, dated 2020)

Assays:
[1] = Standard enzyme activity measurement toward PPO, crude enzyme (per volume fermentation broth); format: biochemical; conditions: toward PPO; for Enzyme activity of mutants (U/mL): crude enzyme, standard system, N.D. = no detectable activity
Procedure: The preserved recombinant E. coli is streaked onto the plate for activation. Single colonies are picked and inoculated into 5 mL LB liquid medium containing 50 μg/mL kanamycin and cultured at 37° C. for 12 h. The culture is transferred to 50 mL fresh LB liquid medium containing 50 μg/mL kanamycin at a 2% inoculum, and then incubated at 37° C. until the OD600 reaches 0.6; after that, add IPTG to a final concentration of 0.5 mM, and then proceed with induction culture under the temperature of 18° C. for 16 h.
After the cultivation, the culture is centrifuged at 10000 rpm for 10 min; discard supernatant, and collect cells. The harvested cells are washed for 2 times using pH 7.5 50 mM phosphate buffer. After that, the cells are re-suspend into the pH 7.5 phosphate buffer and disrupted ultrasonically (400W for 30 times, Ultrasonic time is 3 s, and the interval is 7 s). The cell disrupted solution is centrifuged at 12000 g for 5 min at 4° C. to remove the precipitate, and the supernatant obtained is the crude enzyme containing recombinant glutamate dehydrogenase
The standard enzyme activity measurement system: Appropriate amount of enzyme, 100 mM substrate, 10 mM coenzyme (NADH or NADPH), 500 mM NH4^+ ((NH4)2SO4); total system volume is up to 400 μL; reaction medium is pH 7.5 phosphate buffer. 35° C. reaction for 10 min; after that, add 40 uL 5 M NaOH to terminate reaction.
Definition of enzyme activity unit: The quantity of enzyme as required by generation of 1 μmol L-phosphinothricin per minute under standard reaction conditions.
Proceed with induction culture of constructed mutants, and prepare crude enzyme solution.

[2] = Preparation of L-phosphinothricin by coupling glutamate dehydrogenase with glucose dehydrogenase; format: biochemical; conditions: 500 mM PPO, NAD+, GluDH cells 1.25 g/L
Procedure: The reaction process is monitored by measuring the concentration of substrate in the reaction solution applying high-performance liquid chromatography (HPLC). HPLC analysis method is stated as follows: column model: Pntulips® QS-C18, 5 μm, 4.6 mm×250 mm. Mobile phase: 50 mM (NH4)2HPO4, added 1% of 10% tetrabutyl ammonium hydroxide, adjusted to pH 3.6 with 50% phosphoric acid(mass fraction), added 8% acetonitrile. Detective wave length is 205 nm; flow rate is 1.0 mL/min. Column temperature is 40° C.
The enantiomeric excess and concentration of product are determined through pre-column derivatization high-performance liquid chromatography; the specific analysis method is stated as follows:
(1) HPLC condition: column model: Pntulips® QS-C18, 5 μm, 4.6 mm×250 mm. Mobile phase: 50 mM Sodium acetate: Acetonitrile=8: 0.5 (v/v). Detective wave length: 338 nm. Flow rate: 0.85 mL/min. Column temperature: 30° C.
(2) Derivatization reagent: Weigh 0.03 g phthalaldehyde and 0.1 g N-acetyl-L-cysteine, and use 400 uL ethanol for solubilization; after that, add 4 mL 0.2 mol/L borate buffer (pH 9.8) and shake for dissolution prior to storage in the fridge under the temperature of 4° C. (no more than 4 days).
(3) Derivatization reaction and analysis: Add 150 μL derivatization reagent into 100 μL sample, mix and incubate at 25° C. for 5 min, and then inject 20 μL for analysis.
Culture recombinant E. coli expressing glutamate dehydrogenase (PpGluDH) and glucose dehydrogenase (BsGDH-2M, SEQ ID NO. 21) with method in Step 3 of Embodiment 1; proceed with centrifugal collection of cells and ultrasonic cell disruption to prepare crude enzyme solution.
(§1) The final volume of the reaction is 30 mL; each sample contains 500 mM substrate PPO, 600 mM glucose, 250 mM (NH4)2SO4 and 0.5 mM NADP^+. Concentration of glutamate dehydrogenase cells (dry weight) is 1.0 g/L; concentration of glucose dehydrogenase cells (dry weight) is 1.25 g/L. Use water bath to control the reaction temperature at 35° C.; titrate ammonia to control pH at 7.5 during the reaction process. Use non-chiral HPLC to determine residual concentration of PPO after reaction for 6 h; meanwhile, use pre-column derivatization HPLC to determine the concentration and ee value of formed L-phosphinothricin.
as §1, with “0.5” for “1.0”
as §1, with “NAD^+.” for “NADP^+.”, “1.25” for “1.0”
The final volume of the reaction is 30 mL; each sample contains 500 mM substrate PPO, 600 mM glucose, 250 mM (NH4)2SO4 and 0.5 mM NAD^+. Concentration of glutamate dehydrogenase cells (dry weight) is 1.25 g/L; concentration of glucose dehydrogenase cells (dry weight) is 1.25 g/L. Use water bath to control the reaction temperature at 35° C.; titrate ammonia to control pH at 7.5 during the reaction process. […]

B1: PeGluDH-A164G: PeGluDH mutant A164G, SEQ ID NO. 5 (protein)
chain: MIESVDHFLARLQQRDPAQPEFHQAVEEVLRSLWPFLEQNPHYLEAGILERMVEPERAVLFRVSWVDDQGKVQVNRGYRIQMSSAIGPYKGGLRFHPSVNLGVLKFLAFEQVFKNSLTSLPMGGGKGGSDFDPKGKSDAEVMRFCQAFMSELYRHIGADLDVPGGDIGVGAREIGFLFGQYKRLANQFTSVLTGKGMTYGGSLIRPEATGYGCVYFAEEMLKRQEQRIDGRRVAISGSGNVAQYAARKVMDLGGKVISLSDSEGTLFCEAGLTDEQWDALMELKNVKRGRISELAGRFGLEFRKGQTPWSLACDIALPCATQNELNADDARTLLRNGCICVAEGANMPTTLDAVDIFIEAGILYAPGKASNAGGVAVSGLEMSQNAMRLLWTAGEVDSKLHHIMQSIHHVCVHYGEEADGRINYVKGANIAGFVKVADAMLAQGVV
modifications: Pseudomonas entomophila glutamate dehydrogenase mutant
- Fold change ([1]; enzyme activity of mutant versus wild type): 110
- Enzyme activity of mutants (U/mL) [1]: 11.29 U/mL

B2: CsGluDH-A164G: CsGluDH mutant A164G, SEQ ID NO. 17 (protein)
chain: MSKYVDRVIAEVEKKYADEPEFVQTVEEVLSSLGPVVDAHPEYEEVALLERMVIPERVIEFRVPWEDDNGKVHVNTGYRVQFNGAIGPYKGGLRFAPSVNLSIMKFLGFEQAFKDSLTTLPMGGAKGGSDFDPNGKSDREVMRFCQAFMTELYRHIGPDIDVPGGDLGVGAREIGYMYGQYRKIVGGFYNGVLTGKARSFGGSLVRPEATGYGSVYYVEAVMKHENDTLVGKTVALAGFGNVAWGAAKKLAELGAKAVTLSGPDGYIYDPEGITTEEKINYMLEMRASGRNKVQDYADKFGVQFFPGEKPWGQKVDIIMPCATQNDVDLEQAKKIVANNIKYYIEVANMPTTNEALRFLMQQPNMVVAPSKAVNAGGVLVSGFEMSQNSERLSWTAEEVDSKLHQVMTDIHDGSAAAAERYGLGYNLVAGANIVGFQKIADAMMAQGIAW
modifications: Clostridium symbiosum glutamate dehydrogenase mutant
- Enzyme activity of mutants (U/mL) [1]: 2.61 U/mL
- concentration of formed L-phosphinothricin ([2]; 35° C., pH 7.5, 6 h): 79.6 g/L
- residual PPO ([2]; 35° C., pH 7.5, 6 h): 0 mM
- substrate conversion ([2]; 35° C., pH 7.5, 6 h): 100%

B3: CsGluDH-V378A: CsGluDH mutant V378A, SEQ ID NO. 18 (protein)
chain: MSKYVDRVIAEVEKKYADEPEFVQTVEEVLSSLGPVVDAHPEYEEVALLERMVIPERVIEFRVPWEDDNGKVHVNTGYRVQFNGAIGPYKGGLRFAPSVNLSIMKFLGFEQAFKDSLTTLPMGGAKGGSDFDPNGKSDREVMRFCQAFMTELYRHIGPDIDVPAGDLGVGAREIGYMYGQYRKIVGGFYNGVLTGKARSFGGSLVRPEATGYGSVYYVEAVMKHENDTLVGKTVALAGFGNVAWGAAKKLAELGAKAVTLSGPDGYIYDPEGITTEEKINYMLEMRASGRNKVQDYADKFGVQFFPGEKPWGQKVDIIMPCATQNDVDLEQAKKIVANNIKYYIEVANMPTTNEALRFLMQQPNMVVAPSKAVNAGGALVSGFEMSQNSERLSWTAEEVDSKLHQVMTDIHDGSAAAAERYGLGYNLVAGANIVGFQKIADAMMAQGIAW
modifications: Clostridium symbiosum glutamate dehydrogenase mutant
- Enzyme activity of mutants (U/mL) [1]: 1.76 U/mL
- concentration of formed L-phosphinothricin ([2]; 35° C., pH 7.5, 12 h): 78.5 g/L
- residual PPO ([2]; 35° C., pH 7.5, 12 h): 1.8 mM
- substrate conversion ([2]; 35° C., pH 7.5, 12 h): 99.6%

B4: BtGluDH-A155G: BtGluDH mutant A155G, SEQ ID NO. 19 (protein)
chain: MVTENTQGKEQKQESMNLLQSTQTVIKEALEKLGYQESMYELLKEPLRVLTVRIPVRMDNGEVKVFTGYRAQHNDAVGPTKGGIRFHPDVTEDEVKALSIWMSLKAGIVDLPYGGGKGGIICDPREMSFRELERLSRGYVRAVSQIVGPTKDIPGPDVFTNSQIMAWMMDEYSRIREFDSPGFITGKPIALGGSHGRETATAKGVTICIREAAKRRGIDLKGARVVVQGFGNAGSYLSKFMHDAGAKVVGISDAYGALYDPNGLDIDYLLDRRDSFGTVTKLFTNTITNKELLELDCDILVPAAIENQITAANAHNIKAKIVVEAANGPTTLEATKILTERGILLVPDVLASAGGVTVSYFEWVQNNQGYYWSEEEVQEKLEKVMVKAFENVYSLAQTRRVDMRLAAYMVGVRKMAEASRFRGWV
modifications: Brevibacillus thermoruber glutamate dehydrogenase mutant
- Enzyme activity of mutants (U/mL) [1]: 0.50 U/mL
- concentration of formed L-phosphinothricin ([2]; 50° C., pH 7.5, 6 h): 80.3 g/L
- residual PPO ([2]; 50° C., pH 7.5, 6 h): 1.4 mM
- substrate conversion ([2]; 50° C., pH 7.5, 6 h): 99.7%
